The text below walks through data of patent publication US20230212268A1 (UNM RAINFOREST INNOVATIONS, published 2023).

Assay [1] addresses T1, recombinant MARV glycoprotein (MARV (marburgvirus, Ravn), UniProt Q1PDC7 19-648).
T1 sequence: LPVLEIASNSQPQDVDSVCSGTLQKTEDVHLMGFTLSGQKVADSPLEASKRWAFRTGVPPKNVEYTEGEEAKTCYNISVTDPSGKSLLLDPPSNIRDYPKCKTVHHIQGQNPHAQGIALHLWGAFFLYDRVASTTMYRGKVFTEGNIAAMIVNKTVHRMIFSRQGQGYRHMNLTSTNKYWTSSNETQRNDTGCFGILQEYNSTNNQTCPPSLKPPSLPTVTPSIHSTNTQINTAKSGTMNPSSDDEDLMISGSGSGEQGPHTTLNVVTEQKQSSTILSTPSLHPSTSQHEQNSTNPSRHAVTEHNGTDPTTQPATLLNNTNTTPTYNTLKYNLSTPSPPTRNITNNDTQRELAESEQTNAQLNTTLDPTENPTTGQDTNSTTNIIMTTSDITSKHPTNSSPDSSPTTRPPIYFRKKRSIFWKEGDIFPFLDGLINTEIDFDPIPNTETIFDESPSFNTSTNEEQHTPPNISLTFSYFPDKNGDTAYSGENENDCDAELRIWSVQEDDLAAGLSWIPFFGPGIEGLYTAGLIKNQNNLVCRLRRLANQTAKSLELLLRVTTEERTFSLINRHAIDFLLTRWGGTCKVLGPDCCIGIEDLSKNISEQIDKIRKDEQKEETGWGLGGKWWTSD
The assay is described as follows: ELISA dose response, GP coated.

In assay [2] the target is T2, recombinant RESTV glycoprotein (RESTV (Reston ebolavirus), UniProt Q66799 34-651).
T2 sequence: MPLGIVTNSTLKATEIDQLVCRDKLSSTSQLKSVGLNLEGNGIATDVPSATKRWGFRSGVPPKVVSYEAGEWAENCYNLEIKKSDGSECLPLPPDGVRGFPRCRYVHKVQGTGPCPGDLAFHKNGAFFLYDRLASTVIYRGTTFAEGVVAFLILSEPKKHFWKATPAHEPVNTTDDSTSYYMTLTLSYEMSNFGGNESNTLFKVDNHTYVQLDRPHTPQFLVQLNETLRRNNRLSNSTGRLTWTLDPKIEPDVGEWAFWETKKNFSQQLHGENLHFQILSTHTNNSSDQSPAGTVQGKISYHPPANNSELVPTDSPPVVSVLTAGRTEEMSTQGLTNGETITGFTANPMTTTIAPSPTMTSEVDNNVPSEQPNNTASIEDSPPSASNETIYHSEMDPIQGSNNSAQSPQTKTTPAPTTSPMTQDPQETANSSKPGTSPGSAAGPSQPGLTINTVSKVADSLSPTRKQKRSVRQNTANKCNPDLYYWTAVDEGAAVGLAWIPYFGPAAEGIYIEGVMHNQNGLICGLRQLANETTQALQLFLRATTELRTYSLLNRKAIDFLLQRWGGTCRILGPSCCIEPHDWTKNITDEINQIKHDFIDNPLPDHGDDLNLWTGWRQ
The assay is described as follows: ELISA dose response, GP coated. For orientation: ELISA stands for enzyme-linked immunosorbent assay.

Assay [3] has as its target T3, recombinant TAFV glycoprotein (TAFV (Tai Forest virus), UniProt Q66810 33-650).
T3 sequence: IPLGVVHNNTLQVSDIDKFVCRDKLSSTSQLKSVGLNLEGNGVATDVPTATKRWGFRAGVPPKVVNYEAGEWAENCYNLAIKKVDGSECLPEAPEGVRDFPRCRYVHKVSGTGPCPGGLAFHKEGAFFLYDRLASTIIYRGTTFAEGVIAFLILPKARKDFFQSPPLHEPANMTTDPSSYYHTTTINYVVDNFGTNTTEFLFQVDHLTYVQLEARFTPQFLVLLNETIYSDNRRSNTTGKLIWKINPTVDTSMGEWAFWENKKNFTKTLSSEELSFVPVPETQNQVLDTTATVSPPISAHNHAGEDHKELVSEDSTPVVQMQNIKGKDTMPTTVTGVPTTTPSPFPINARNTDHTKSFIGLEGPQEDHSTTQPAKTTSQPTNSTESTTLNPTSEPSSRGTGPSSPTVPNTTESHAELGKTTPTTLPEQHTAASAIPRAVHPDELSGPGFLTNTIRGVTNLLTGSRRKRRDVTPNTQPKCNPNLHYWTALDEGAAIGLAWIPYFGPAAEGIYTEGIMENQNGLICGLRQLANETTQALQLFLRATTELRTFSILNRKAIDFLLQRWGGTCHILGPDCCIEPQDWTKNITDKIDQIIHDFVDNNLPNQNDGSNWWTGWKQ
The assay is described as follows: ELISA dose response, GP coated.

Assay [4] concerns the target T4, recombinant EBOV glycoprotein (EBOV (Zaire ebolavirus), UniProt Q05320 33-650).
T4 sequence: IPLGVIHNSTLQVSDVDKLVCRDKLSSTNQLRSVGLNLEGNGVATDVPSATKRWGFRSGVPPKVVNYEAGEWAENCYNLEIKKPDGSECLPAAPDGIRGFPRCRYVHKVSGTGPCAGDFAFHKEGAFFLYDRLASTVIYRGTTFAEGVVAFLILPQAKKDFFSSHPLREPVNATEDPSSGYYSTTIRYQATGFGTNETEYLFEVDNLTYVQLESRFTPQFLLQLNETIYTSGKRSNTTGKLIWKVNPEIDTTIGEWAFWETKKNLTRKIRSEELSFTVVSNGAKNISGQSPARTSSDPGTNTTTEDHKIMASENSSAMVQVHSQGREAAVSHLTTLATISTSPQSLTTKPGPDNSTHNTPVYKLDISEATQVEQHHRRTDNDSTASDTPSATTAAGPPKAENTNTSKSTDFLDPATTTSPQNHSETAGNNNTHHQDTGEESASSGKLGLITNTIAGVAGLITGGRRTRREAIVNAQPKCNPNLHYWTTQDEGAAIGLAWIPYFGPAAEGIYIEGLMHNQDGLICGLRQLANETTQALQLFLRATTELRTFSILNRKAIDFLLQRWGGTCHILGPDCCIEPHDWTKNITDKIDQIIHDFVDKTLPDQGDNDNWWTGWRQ
The assay is described as follows: ELISA dose response, GP coated.

The target of assay [5] is T2, recombinant RESTV glycoprotein. The assay is described as follows: ELISA dose-response fit, reference scFv22-1.

Values joined by “and” are separate entries in the source; they are usually repeats but may differ in a detail not shown here. Equal values may be shown once. Bounds are passed on as bounds.

B1: EbovGPscFv4-2 (scFv)
scFv: MAWSHPQFEKTGSGGAELVKSGASVKLSCTASGFNIKDDYMHWVKQRPEQGLEWIGWIDPENGDTEYASKFQGKATITADTSSNTAYLQLSSLTSEDTAVYYCTTYYYGSAWFAYWGQGTLVTVSAGGGGSGGGGSGGGGSGGGGSASLSVSVGETVTITCRASGNIHNYLAWYQQKQGKSPQLLVYNAKTLADGVPSRFSGSGSGTQYSLKINNLQPEDFGSYYCQHFWSTPYTFGGGTKLEIKRADAAPTVSIFPPSSEQLTSGGASVVCFLNNFTHCQELQQDECS
Broadly, the EC50 is the concentration needed to bring the measured effect to its halfway point. For the molecule B1, the EC50 is 4.51 µg/mL and < 9 µg/mL in assay [1]; < 9 µg/mL and 7.44 µg/mL in assay [2]; < 9 µg/mL and 6.95 µg/mL in assay [3]; 4.09 µg/mL and < 9 µg/mL in assay [4]. The “fold affinity against scFv22-1” value in assay [5] was approximately 2 fold.
